In patent publication US20230242646A1 (JJP BIOLOGICS SP Z O O, published 2023):

T1: membrane full-length cynomolgus monkey CD89 on HEK293F cells (cynomolgus monkey)
T1 construct: also called cynoCD89; cynomolgus EC1-CD89
T1 chain: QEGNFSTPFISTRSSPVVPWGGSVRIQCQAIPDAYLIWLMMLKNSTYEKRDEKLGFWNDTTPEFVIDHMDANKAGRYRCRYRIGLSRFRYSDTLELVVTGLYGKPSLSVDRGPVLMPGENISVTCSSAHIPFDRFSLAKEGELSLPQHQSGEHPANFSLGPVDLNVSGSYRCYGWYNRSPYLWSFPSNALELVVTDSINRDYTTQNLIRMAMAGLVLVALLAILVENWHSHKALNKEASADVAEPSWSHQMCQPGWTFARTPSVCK

T2: chimeric human/cynomolgus monkey CD89-I on HEK293F cells (human/cynomolgus chimera, UniProt P24071 22-287)
T2 construct: also called dGln22 - Lys46 human EC1-CD89; I (22-46)
T2 chain: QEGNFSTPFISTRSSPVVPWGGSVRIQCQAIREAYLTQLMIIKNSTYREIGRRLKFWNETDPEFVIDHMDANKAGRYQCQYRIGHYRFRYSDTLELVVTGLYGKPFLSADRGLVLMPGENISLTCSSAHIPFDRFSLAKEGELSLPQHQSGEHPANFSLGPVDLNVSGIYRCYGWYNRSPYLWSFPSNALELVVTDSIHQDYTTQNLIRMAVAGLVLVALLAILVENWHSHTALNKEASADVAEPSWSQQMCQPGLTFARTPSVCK

T3: chimeric human/cynomolgus monkey CD89-hotspots on HEK293F cells (human/cynomolgus chimera, UniProt P24071 22-287)
T3 construct: also called dThr58, Gln59; dArg73, Arg74, Lys76
T3 chain: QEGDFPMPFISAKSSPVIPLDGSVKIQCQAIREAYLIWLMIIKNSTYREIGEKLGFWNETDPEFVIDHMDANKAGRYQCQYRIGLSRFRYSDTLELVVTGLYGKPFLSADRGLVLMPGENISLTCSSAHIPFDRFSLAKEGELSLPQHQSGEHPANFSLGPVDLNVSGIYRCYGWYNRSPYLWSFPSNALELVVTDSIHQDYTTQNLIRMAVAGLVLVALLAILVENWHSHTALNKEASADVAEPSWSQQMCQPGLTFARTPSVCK

T4: chimeric human/cynomolgus monkey CD89-IV on HEK293F cells (human/cynomolgus chimera, UniProt P24071 22-287)
T4 construct: also called dArg97 - Gly121 human EC1-CD89
T4 chain: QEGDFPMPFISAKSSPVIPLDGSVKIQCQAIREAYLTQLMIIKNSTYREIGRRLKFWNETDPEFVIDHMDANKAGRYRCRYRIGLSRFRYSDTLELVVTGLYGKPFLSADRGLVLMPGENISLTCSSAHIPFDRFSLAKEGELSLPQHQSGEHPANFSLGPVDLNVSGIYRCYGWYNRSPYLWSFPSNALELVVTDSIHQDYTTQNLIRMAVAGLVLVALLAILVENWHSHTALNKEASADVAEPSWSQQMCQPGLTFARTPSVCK

T5: chimeric human/cynomolgus monkey CD89-III on HEK293F cells (human/cynomolgus chimera, UniProt P24071 22-287)
T5 construct: also called dGly72 - Gly96 human EC1-CD89; III (72-96)
T5 chain: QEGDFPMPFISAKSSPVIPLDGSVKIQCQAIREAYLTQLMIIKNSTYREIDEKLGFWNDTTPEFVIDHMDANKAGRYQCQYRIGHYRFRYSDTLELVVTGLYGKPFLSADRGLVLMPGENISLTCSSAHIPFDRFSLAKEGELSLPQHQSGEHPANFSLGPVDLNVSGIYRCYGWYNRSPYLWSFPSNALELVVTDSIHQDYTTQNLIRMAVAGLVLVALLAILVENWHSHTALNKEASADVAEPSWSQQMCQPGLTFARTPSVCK

T6: chimeric bovine EC1-Fcgamma2R/human EC2-CD89 on HEK293F cells (bovine/human chimera)
T6 chain: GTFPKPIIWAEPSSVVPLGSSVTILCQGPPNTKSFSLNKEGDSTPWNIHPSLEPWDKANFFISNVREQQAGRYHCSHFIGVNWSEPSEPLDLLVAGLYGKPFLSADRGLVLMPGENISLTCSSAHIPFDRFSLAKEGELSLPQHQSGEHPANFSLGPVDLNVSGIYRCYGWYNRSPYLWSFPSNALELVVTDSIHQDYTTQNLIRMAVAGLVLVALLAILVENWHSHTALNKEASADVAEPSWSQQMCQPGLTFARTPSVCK

T7: chimeric human/cynomolgus monkey CD89-II on HEK293F cells (human/cynomolgus chimera, UniProt P24071 22-287)
T7 construct: also called dIle47 - Ile71 human EC1-CD89; II (47-71)
T7 chain: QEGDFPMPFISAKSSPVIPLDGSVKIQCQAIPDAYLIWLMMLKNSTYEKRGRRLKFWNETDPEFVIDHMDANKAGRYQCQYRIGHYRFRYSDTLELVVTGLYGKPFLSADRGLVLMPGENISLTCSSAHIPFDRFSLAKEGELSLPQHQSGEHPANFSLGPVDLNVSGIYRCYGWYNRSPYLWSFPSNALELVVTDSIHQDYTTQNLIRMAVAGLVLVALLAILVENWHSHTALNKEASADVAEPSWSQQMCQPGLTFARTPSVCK


Columns and labels:
[1] = target: T8, membrane-bound full-length human CD89 on HEK293F cells (human, UniProt P24071 22-287); experiment: FACS on HEK293F-huCD89
T8 construct: 2 or transient transfectants; also called membrane human CD89; human FcaRI
Experimental: Then, 10 µL/tube (i.e., 0.1 x 10⁶ cells) of these cells were incubated with 100 µL titrated (in PBS/BSA/NaN₃) purified mouse anti-human CD89 antibody/tube for 30 minutes at 4° C. […] After extensive washing in PBS/BSA/NaN₃, cells were subsequently incubated with 1:200 diluted PE-conjugated goat anti-mouse IgG Fcy-specific antibodies (Jackson ImmunoResearch) for 30 minutes at 4° C. After extensive washing in PBS/BSA/NaN₃, cells were fixed in 2% formaldehyde in PBS/BSA/NaN₃ for 30 minutes at 4° C.

[2] = target: T8, membrane-bound full-length human CD89 …; experiment: FACS, antibody before secretory IgA on HEK293F-huCD89; IgA detected
Experimental: Then, 10 µL/tube (i.e., 0.1 x 10⁶ cells) of these cells were incubated with or without 50 µL titrated (in PBS/BSA/NaN₃) purified mouse anti-human CD89 antibody/tube for 30 minutes at 4° C. […] After extensive washing in PBS/BSA/NaN₃, 1:200 diluted PE-conjugated streptavidin (Jackson ImmunoResearch) was added, and incubated for 30 minutes at 4° C. After extensive washing in PBS/BSA/NaN₃, cells were fixed in 4% formaldehyde in PBS/BSA/NaN₃ for 30 minutes at 4° C.

[3] = target: T9, recombinant C-terminal polyhistidine-tagged human (extracellular) CD89 (Sino Biological) (human, UniProt P24071 22-227); experiment: ELISA, coated rhuCD89
T9 construct: extracellular domain; bought protein; also called rhuCD89; soluble monomeric rhuCD89
Experimental: After extensive washing with PBS/0.05% Tween 20, plates were blocked with PBS/0.05% Tween 20/1% BSA (Roche) for 1 hour at RT. Subsequently, plates were incubated with 50 µL titrated (in block buffer) purified mouse anti-human CD89 antibody/well for 1 hour at RT. […] After extensive washing in PBS/0.05% Tween 20, binding of antibodies on rhuCD89 was determined with 1:5,000 diluted horseradish peroxidase (HRP)-conjugated goat anti-mouse IgG Fcy-specific antibodies (Jackson ImmunoResearch) for 1 hour at RT, followed by a ready-to-use solution of TMB substrate (Invitrogen) for colorimetric detection.
After extensive washing with PBS/0.05% Tween 20, plates were blocked with PBS/0.05% Tween 20/1% BSA (Roche) for 1 hour at RT. […] After extensive washing in PBS/0.05% Tween 20, binding of antibodies on rhuCD89 was determined with 1:5,000 diluted horseradish peroxidase (HRP)-conjugated goat anti-human IgG Fcy-specific antibodies (Jackson ImmunoResearch) for 1 hour at RT, followed by a ready-to-use solution of TMB substrate (Invitrogen) for colorimetric detection.

[4] = target: T8, membrane-bound full-length human CD89 …; experiment: FACS, antibody before serum IgA on HEK293F-huCD89; IgA detected
Experimental: Then, 10 µL/tube (i.e., 0.1 x 10⁶ cells) of these cells were incubated with 50 µL titrated (in PBS/BSA/NaN₃) purified mouse anti-human CD89 antibody/tube for 30 minutes at 4° C. […] After extensive washing in PBS/BSA/NaN₃, 1:200 diluted PE-conjugated streptavidin (Jackson ImmunoResearch) was added, and incubated for 30 minutes at 4° C. After extensive washing in PBS/BSA/NaN₃, cells were fixed in 2% formaldehyde in PBS/BSA/NaN₃ for 30 minutes at 4° C.

[5] = target: T1, membrane full-length cynomolgus monkey …; experiment: FACS, transiently transfected HEK293F
Experimental: To this end, transient transfected HEK293F cells were put at 10 x 10⁶ cells/mL in ice-chilled phosphate-buffered saline containing 0.1% BSA (Sigma)/0.05% NaN₃ (PBS/BSA/NaN₃) supplemented with 50 µg/mL human IgGs (blocking FcY receptors; Sigma) for 10 minutes at 4° C. Then, 10 µL/tube (i.e., 0.1 × 10⁶ cells) of these cells were incubated with or without 100 µL purified mouse anti-human CD89 antibody at 10 µg/mL (in PBS/BSA/NaN₃) for 30 minutes at 4° C. […] After extensive washing in PBS/BSA/NaN₃, cells were subsequently incubated with 1:200 diluted PE-conjugated goat anti-mouse IgG Fcy-specific antibodies (Jackson ImmunoResearch) for 30 minutes at 4° C. After extensive washing in PBS/BSA/NaN₃, cells were fixed in 2% formaldehyde in PBS/BSA/NaN₃ for 30 minutes at 4° C.

[6] = target: T8, membrane-bound full-length human CD89 …; experiment: FACS HEK293F-huCD89
Experimental: After extensive washing in PBS/BSA/NaN₃, cells were subsequently incubated with 1:200 diluted PE-conjugated goat anti-human IgG Fcy-specific antibodies (Jackson ImmunoResearch) for 30 minutes at 4° C. After extensive washing in PBS/BSA/NaN₃, cells were fixed in 2% formaldehyde in PBS/BSA/NaN₃ for 30 minutes at 4° C.

[7] = target: T2, chimeric human/cynomolgus monkey CD89-I …; experiment: FACS, 10 µg/mL, transiently transfected HEK293F
Experimental: (§1) To this end, transient transfected HEK293F cells were put at 10 × 10⁶ cells/mL in ice-chilled phosphate-buffered saline containing 0.1% BSA (Sigma)/0.05% NaN₃ (PBS/BSA/NaN₃) supplemented with 50 µg/mL human IgGs (blocking FcY receptors; Sigma) for 10 minutes at 4° C. Then, 10 µL/tube (i.e., 0.1 × 10⁶ cells) of these cells were incubated with or without 100 µL purified mouse anti-human CD89 antibody at 10 µg/mL (in PBS/BSA/NaN₃) for 30 minutes at 4° C. […] After extensive washing in PBS/BSA/NaN₃, cells were subsequently incubated with 1:200 diluted PE-conjugated goat anti-mouse IgG Fcy-specific antibodies (Jackson ImmunoResearch) for 30 minutes at 4° C. After extensive washing in PBS/BSA/NaN₃, cells were fixed in 2% formaldehyde in PBS/BSA/NaN₃ for 30 minutes at 4° C.

[8] = target: T3, chimeric human/cynomolgus monkey …; experiment: FACS, 10 µg/mL, transiently transfected HEK293F
Experimental: as §1

[9] = target: T4, chimeric human/cynomolgus monkey …; experiment: FACS, 10 µg/mL, transiently transfected HEK293F
Experimental: as §1

[10] = target: T5, chimeric human/cynomolgus monkey …; experiment: FACS, 10 µg/mL, transiently transfected HEK293F
Experimental: as §1

[11] = target: T6, chimeric bovine EC1-Fcgamma2R/human …; experiment: FACS, transiently transfected HEK293F
Experimental: To this end, transient transfected HEK293F cells were put at 10 × 10⁶ cells/mL in ice-chilled phosphate-buffered saline containing 0.1% BSA (Sigma)/0.05% NaN₃ (PBS/BSA/NaN₃) supplemented with 50 µg/mL human IgGs (blocking Fcy receptors; Sigma) for 10 minutes at 4° C. Then, 10 µL/tube (i.e., 0.1 × 10⁶ cells) of these cells were incubated with or without 100 µL purified mouse anti-human CD89 antibody at 10 µg/mL (in PBS/BSA/NaN₃) for 30 minutes at 4° C. […] After extensive washing in PBS/BSA/NaN₃, cells were subsequently incubated with 1:200 diluted PE-conjugated goat anti-mouse IgG Fcy-specific antibodies (Jackson ImmunoResearch) for 30 minutes at 4° C. After extensive washing in PBS/BSA/NaN₃, cells were fixed in 2% formaldehyde in PBS/BSA/NaN₃ for 30 minutes at 4° C.

[12] = target: T8, membrane-bound full-length human CD89 …; experiment: FACS HEK293F-huCD89, 10 ug/mL; competitor PE-MIP8a
Experimental: (§2) Then, 10 µL/tube (i.e., 0.1 × 10⁶ cells) of these cells were incubated with or without 100 µL purified mouse anti-human CD89 antibody at 10 µg/mL (in PBS/BSA/NaN₃) for 30 minutes at 4° C. […] After extensive washing in PBS/BSA/NaN₃, cells were fixed in 2% formaldehyde in PBS/BSA/NaN₃ for 30 minutes at 4° C.

[13] = target: T7, chimeric human/cynomolgus monkey …; experiment: FACS, transiently transfected HEK293F
Experimental: as §1

[14] = target: T9, recombinant C-terminal …; experiment: ELISA, antibody before serum IgA on coated rhuCD89; IgA detected
Experimental: After extensive washing with PBS/0.05% Tween 20, plates were blocked with PBS/0.05% Tween 20/1% BSA (Roche) for 1 hour at RT. Subsequently, plates were incubated with 25 µL titrated (in block buffer) purified mouse anti-human CD89 antibody/well for 30 minutes at RT. […] After extensive washing in PBS/0.05% Tween 20, 1:10,000 diluted HRP-conjugated streptavidin (Jackson ImmunoResearch) was added, and incubated for 1 hour at RT, followed by a ready-to-use solution of TMB substrate (Invitrogen) for colorimetric detection.

[15] = target: T8, membrane-bound full-length human CD89 …; experiment: FACS HEK293F-huCD89, 10 ug/mL; competitor PE-A3
Experimental: as §2

[16] = target: T8, membrane-bound full-length human CD89 …; experiment: FACS HEK293F-huCD89, 10 ug/mL; competitor PE-A59
Experimental: as §2

[17] = target: membrane human CD89 on ex vivo primary human neutrophilic granulocytes or monocytic U937 cells (human, UniProt P24071 22-287); experiment: cell-based or functional assay
[18] = target: T8, membrane-bound full-length human CD89 …; experiment: FACS, unlabelled antibody before MIP8a-PE on HEK293F-huCD89
[19] = target: T8, membrane-bound full-length human CD89 …; experiment: FACS HEK293F-huCD89, supernatant
Experimental: After extensive washing in PBS/BSA/NaN₃, cells were subsequently incubated with 1:200 diluted PE-conjugated goat anti-human IgG Fcγ-specific antibodies (Jackson ImmunoResearch) for 30 minutes at 4° C. After extensive washing in PBS/BSA/NaN₃, cells were fixed in 4% formaldehyde in PBS/BSA/NaN₃ for 30 minutes at 4° C.

[20] = target: T9, recombinant C-terminal …; experiment: ELISA, coated rhuCD89, supernatant
Experimental: After extensive washing with PBS/0.05% Tween 20, plates were blocked with PBS/0.05% Tween 20/1% BSA (Roche) for 1 hour at RT. […] After extensive washing in PBS/0.05% Tween 20, binding of antibodies on rhuCD89 was determined with 1:5,000 diluted horseradish peroxidase (HRP)-conjugated goat anti-human IgG Fcγ-specific antibodies (Jackson ImmunoResearch) for 1 hour at RT, followed by a ready-to-use solution of TMB substrate (Invitrogen) for colorimetric detection. After adding 1 M HCL, binding (optical density) of antibodies on rhuCD89 was measured at wavelength of 450 nm (reference wavelength of 655 nm) using a microplate reader (Synergy HTX; BioTek).

Row | EC50 (read off the curve) [1] | IC50 (read off the curve) [2] | EC50 [3] | IC50 (read off the curve) [4] | binding result [5] | EC50 [6] | binding result [7] | binding result [8] | binding result [9] | binding result [10] | binding result [11] | % blocking of PE-MIP8a binding [12] | binding result [13] | IC50 (read off the curve) [14] | % blocking of PE-A3 binding [15] | % blocking of PE-A59 binding [16] | IC50 (read off the bars), binding of granulocytes to plate-bound serum IgA [Donor 2] [17] | IC50 (read off the curve) [18] | EC50 [19] | EC50 [20] | Binder
1 | ~0.2 µg/mL | ~0.4 µg/mL | 0.013 µg/mL | ~0.3 µg/mL | no binding (tested: 10 µg/mL) | 0.26 µg/mL | binds | binds | binds | binds | no binding (tested: 10 µg/mL) | < 25% | no binding (tested: 10 µg/mL) |  |  |  |  |  |  |  | CD89/IgA blocking mouse anti-human CD89-specific antibody 20B4 (antibody, V domains shown) VH: QVQLKESGPGLVAPSQSLSITCTVSGFSLTSYGVHWVRQPPGKGLEWLGIIWAGGSTSYNSALMSRLSISKDNSKSQVFLKMNSLQTDDTAMYYCARDHYDLFAYWGQGTLVTVSA VL: DILMTQSPSSMSVSLGDTVSITCHASQDISRNIGWLQQKPGKSFKGLIYHGTNLEDGVPSRFSGSGSGADYSLTISSLESEDFADYYCVQYAQFPRTFGGGTKLEIK
2 | ~0.4 µg/mL | ~1 µg/mL | 0.029 µg/mL | ~0.6 µg/mL |  | 0.484 µg/mL | binds | binds | binds | binds | no binding (tested: 10 µg/mL) | > 90% | no binding (tested: 10 µg/mL) | ~0.1 µg/mL | < 25% | < 25% | ~0.6 µg/mL | ~1 µg/mL |  |  | CD89/IgA blocking mouse anti-human CD89-specific antibody 30C7 (antibody, V domains shown) VH: QVQLQQSGPELVRPGVSVKISCKGSGYTFTDYVMHWVKQSHAKSLEWIGVISTYSGNTNYNQKFKGKATMTVDKSSSTAYMELARLTSEDSAIYYCARESDGYYFDYWGQGTTLTVSS VL: DIVMSQSPSSLAVSAGEKVTMSCKSSQSLLNSRTRKNYLAWYQQKPGQSPKLLIYWASTRESGVPDRFTGSGSGTDFTLTISSVQAEDLAVYYCKQSYNLMYTFGGGTKLEIK
3 |  |  |  |  |  |  |  |  |  |  |  |  |  |  |  |  |  |  | ~1 µg/mL | ~0.02 µg/mL | humanized IgG4/kappa anti-human CD89 monoclonal antibody 10E7 version VH3VL3 (antibody, tested as supernatant; signal peptide end derived as for m17) heavy: not shown light: DIQMTQSPSSLSASVGDRVTITCRASQDIINYLNWYQQKPGKAVKLLIYYTSRLHSGVPSRFSGSGSGTDYTLTISSLQPEDFATYYCQQGKTLPYTFGQGTKLEIKRTVAAPSVFIFPPSDEQLKSGTASVVCLLNNFYPREAKVQWKVDNALQSGNSQESVTEQDSKDSTYSLSSTLTLSKADYEKHKVYACEVTHQGLSSPVTKSFNRGEC
4 |  |  |  |  |  |  |  |  |  |  |  |  |  |  |  |  |  |  | ~1 µg/mL | ~0.02 µg/mL | humanized IgG4/kappa anti-human CD89 monoclonal antibody 10E7 version VH3VL4 (antibody, tested as supernatant; signal peptide end derived as for m17) heavy: not shown light: DIQMTQSPSSLSASVGDRVTITCRASQDIINYLNWYQQKPGKTVKLLIYYTSRLHSGVPSRFSGSGSGTDYTLTISSLQPEDFATYFCQQGKTLPYTFGQGTKLEIKRTVAAPSVFIFPPSDEQLKSGTASVVCLLNNFYPREAKVQWKVDNALQSGNSQESVTEQDSKDSTYSLSSTLTLSKADYEKHKVYACEVTHQGLSSPVTKSFNRGEC
